Target: PLY R208A (Streptococcus pneumoniae) (UniProt P0C2J9)

PLY R208A (from UniProt P0C2J9 2-470) (natural protein)
cytolytic activity on human red blood cells, percent of native PLY activity (% native PLY activity): 2.5

— article PMC4585913, “Crystal structure of Streptococcus pneumoniae pneumolysin provides key insights into early steps of pore formation” (Scientific Reports, 2015)
